Measurements taken from patent EP0368684A1.

How the values were obtained:
[1] = biological target: hen egg white lysozyme (hen) (UniProt P00698); test: fluorescence quench titration with lysozyme
[2] = biological target: hen egg white lysozyme (hen) (UniProt P00698); test: calculated from the on-rate and off-rate of the stopped-flow analysis
[3] = biological target: hen egg white lysozyme (hen) (UniProt P00698); test: fluorescence quench titration, VHLYS concentration from quantitative amino acid analysis; conditions: scale: mole of lysozyme per mole of VHLYS domain

UniProt P00698, sequence (P00698 19-147 limits assumed): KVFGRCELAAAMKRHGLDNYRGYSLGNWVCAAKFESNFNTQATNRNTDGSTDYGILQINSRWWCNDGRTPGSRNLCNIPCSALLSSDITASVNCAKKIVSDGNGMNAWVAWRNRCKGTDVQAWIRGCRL

Kd [1]: 12 nM | Kd [2]: 19 nM | stoichiometry (mole of lysozyme per mole of VHLYS domain) [3]: 1.2
Substance: VHLYS domain (heavy chain variable domain of the D1.3 anti-lysozyme antibody)
